From ChEMBL document CHEMBL1671790, “A new β-carbonic anhydrase from Brucella suis, its cloning, characterization, and inhibition with sulfonamides and sulfamates, leading to impaired pathogen growth” (Bioorg Med Chem, 2011)

What was measured:
[1] = substrate: O=C=O; assay: Ratio of kcat to Km for human carbonic anhydrase VA
[2] = substrate: O=C=O; assay: Activity at human carbonic anhydrase VA by spectrophotometry at pH 7.5
[3] = substrate: O=C=O; assay: Activity at human carbonic anhydrase XII by spectrophotometry at pH 7.5
[4] = substrate: O=C=O; assay: Ratio of kcat to Km for human carbonic anhydrase XII

B1: Carbonic anhydrase 5A, mitochondrial (Homo sapiens), P35218 (protein)
chain: MLGRNTWKTSAFSFLVEQMWAPLWSRSMRPGRWCSQRSCAWQTSNNTLHPLWTVPVSVPGGTRQSPINIQWRDSVYDPQLKPLRVSYEAASCLYIWNTGYLFQVEFDDATEASGISGGPLENHYRLKQFHFHWGAVNEGGSEHTVDGHAYPAELHLVHWNSVKYQNYKEAVVGENGLAVIGVFLKLGAHHQTLQRLVDILPEIKHKDARAAMRPFDPSTLLPTCWDYWTYAGSLTTPPLTESVTWIIQKEPVEVAPSQLSAFRTLLFSALGEEEKMMVNNYRPLQPLMNRKVWASFQATNEGTRS
kcat/Km [1]: 2.9 ×10⁷ /M/s
kcat [2]: 2.9 ×10⁵ /s

B2: Carbonic anhydrase 12 (Homo sapiens), O43570 (protein)
chain: MPRRSLHAAAVLLLVILKEQPSSPAPVNGSKWTYFGPDGENSWSKKYPSCGGLLQSPIDLHSDILQYDASLTPLEFQGYNLSANKQFLLTNNGHSVKLNLPSDMHIQGLQSRYSATQLHLHWGNPNDPHGSEHTVSGQHFAAELHIVHYNSDLYPDASTASNKSEGLAVLAVLIEMGSFNPSYDKIFSHLQHVKYKGQEAFVPGFNIEELLPERTAEYYRYRGSLTTPPCNPTVLWTVFRNPVQISQEQLLALETALYCTHMDDPSPREMINNFRQVQKFDERLVYTSFSQVQVCTAAGLSLGIILSLALAGILGICIVVVVSIWLFRRKSIKKGDNKGVIYKPATKMETEAHA
kcat [3]: 4.2 ×10⁵ /s
kcat/Km [4]: 3.5 ×10⁷ /M/s
